These results are taken from patent US8940871 (University of California, dated 2015).

For experiment [1], the target named is PSCA (form used in Biacore not stated) (UniProt O43653). Briefly: Biacore, apparent affinity.
Experiment [2] concerns the target PSCA on cells (PSCA-transfected B-cell line, LNCaP prostate cancer cells, SKW-PSCA+ cells) (human) (UniProt O43653). Briefly: immunoreactivity of radioiodinated diabody.
Another experiment deals with T1, purified PSCA-Fc (UniProt O43653 12-86).
T1 construct: The construct is described only by a literature citation; not shown: Fc part not described
T1 sequence (looked up): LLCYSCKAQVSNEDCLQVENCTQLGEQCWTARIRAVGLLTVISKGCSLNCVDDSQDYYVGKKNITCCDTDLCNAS
Briefly: competition ELISA, wells coated with PSCA-Fc. As to the method:
To examine the structural characteristics of the 2B3 minibody, SDS-PAGE was conducted under reducing and non-reducing conditions. The minibody migrated with a MW of ~47 kDa under reducing conditions and ~95 kDa under non-reducing (FIG. 2). […] The minibody's apparent affinity with respect to its intact antibody counterpart and the original mouse monoclonal antibody (1G8), was determined by competition ELISA.
PSCA relative binding affinity for the minibodies was determined by competition ELISA in which microtiter plate wells were coated with purified PSCA-Fc (Z Gu, T. Olafsen et al. 2006).
Background: An ELISA detects its analyte on a solid surface through an enzyme-linked reagent.

For experiment [3], the target named is T2, PSCA (form used in Biacore not stated) (UniProt O43653 12-86, limits assumed).
T2 construct: The antigen preparation for the Biacore measurements and for the 4-fold statement is not described; also called prostate stem cell antigen
T2 sequence (looked up): T1 sequence (looked up)
Briefly: method not stated; humanized antibody compared with murine 1G8.

In experiment [4] the target is T2, PSCA (form used in Biacore not stated). Briefly: Biacore, apparent affinity; parental diabody, not affinity matured.

Turning to “affinity matured 2B3 anti-PSCA diabody (scFv dimer, eight amino acid linker)”, in experiment [1], the Kd is 1.89 nM. In experiment [2], this molecule showed an immunoreactivity of 22%.

B1: humanized anti-PSCA minibody (2B3 scFv-CH3 dimer) (other)
chain: DIQLTQSPSSLSASVGDRVTITCSASSSVRFIHWYQQKPGKAPKRLIYDTSKLASGVPSRFSGSGSGTDFTLTISSLQPEDFATYYCQQWSSSPFTFGQGTKVEIKGSTSGGGSGGGSGGGGSSEVQLVESGGGLVQPGGSLRLSCAASGFNIKDYYIHWVRQAPGKGLEWVAWIDPENGDTEFVPKFQGRATISADTSKNTAYLQMNSLRAEDTAVYYCKTGGFWGQGTLVTVSSEPKSCDKTHTCPPCGGGSSGGGSGGQPREPQVYTLPPSRDELTKNQVSLTCLVKGFYPSDIAVEWESNGQPENNYKTTPPVLDSDGSFFLYSKLTVDKSRWQQGNVFSCSVMHEALHNHYTQKSLSLSPGK
notes: Covalent dimer of about 95 kDa; also called 2B3 minibody; parental minibody
For B1, in the experiment with purified PSCA-Fc, the “fold lower affinity than the intact 2B3 antibody” value is ~2 fold and the “fold lower relative affinity than the murine antibody (1G8)” value is 9.2 fold.

B2: humanized 2B3 anti-PSCA antibody (intact) (antibody, V domains shown)
VH: EVQLVESGGGLVQPGGSLRLSCAASGFNIKDYYIHWVRQAPGKGLEWVAWIDPENGDTEFVPKFQGRATISADTSKNTAYLQMNSLRAEDTAVYYCKTGGFWGQGTLVTVSS
VL: DIQLTQSPSSLSASVGDRVTITCSASSSVRFIHWYQQKPGKAPKRLIYDTSKLASGVPSRFSGSGSGTDFTLTISSLQPEDFATYYCQQWSSSPFTFGQGTKVEIK
notes: Intact humanized antibody; also called intact 2B3 antibody; humanized 2B3 antibody
For the molecule B2, the “fold reduction in affinity (against murine 1G8)” value in experiment [3] came out at 4 fold.

B3: parental 2B3 anti-PSCA diabody (scFv dimer, eight amino acid linker) (scFv)
scFv: DIQLTQSPSSLSASVGDRVTITCSASSSVRFIHWYQQKPGKAPKRLIYDTSKLASGVPSRFSGSGSGTDFTLTISSLQPEDFATYYCQQWSSSPFTFGQGTKVEIKGGGSGGGSEVQLVESGGGLVQPGGSLRLSCAASGFNIKDYYIHWVRQAPGKGLEWVAWIDPENGDTEFVPKFQGRATISADTSKNTAYLQMNSLRAEDTAVYYCKTGGFWGQGTLVTVSS
notes: also called parental diabody; 2B3 diabody
For the molecule B3, the Kd in experiment [4] was 5.41 nM.
